Target: Cynomolgus monkey B7H6 protein overexpressed in CHO-K1 cells (Cynomolgus monkey)
Test: flow cytometry on CHO-K1-cyno B7H6 cells, Alexa-647 mouse anti-human IgG-Fc secondary antibody, binding ratio (%)

Chain of Cynomolgus monkey B7H6 protein overexpressed in CHO-K1 cells (Cynomolgus monkey) (chain, as listed by the source limits assumed, form in doubt): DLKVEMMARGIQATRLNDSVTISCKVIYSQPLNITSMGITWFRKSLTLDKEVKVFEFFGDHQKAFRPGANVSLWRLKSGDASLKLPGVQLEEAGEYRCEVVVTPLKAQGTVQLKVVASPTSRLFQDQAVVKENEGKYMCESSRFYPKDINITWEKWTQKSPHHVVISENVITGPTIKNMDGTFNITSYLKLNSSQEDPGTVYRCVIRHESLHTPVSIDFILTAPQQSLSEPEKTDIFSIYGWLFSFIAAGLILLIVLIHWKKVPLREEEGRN

B1: humanized antibody h12F5 (antibody, human IgG1, kappa, V domains shown)
VH: EVQLVQSGAEVKKPGASVKVSCKASGYTFTSYYMYWVRQAPGQGLEWIGEINPSNGGTNFNEKFKSRVTLTVDKSISTAYMELSRLRSDDTAVYYCTRTLYYGNDWYFDVWGQGTTVTVSS
VL: EIVLTQSPDFQSVTPKEKVTITCSASSSVNYMHWYQQKPDQSPKRLIYDTSKLASGVPSRFSGSGSGTDYTLTINSLEAEDAATYYCQQWSSNPVTFGQGTKLEIKR
Binder B1 has an EC50 (read off the curve) of 0.2 µg/mL.

B2: humanized antibody h12G4 (antibody, human IgG1, kappa, V domains shown)
VH: EVQLVQSGAEVKKPGASVKVSCKASGYTFTDYNMDWVRQAPGKGLEWIGDINPNNGGTLYNQKFRGRVTLTVDKSISTAYMELSRLRSDDTAVYYCARSEVFYGNYADYWGQGTTVTVSS
VL: DIVLTQTPLSLSVTPGQPASISCKASQSVDYDGDSYMNWYLQKPGQPPQLLIYAASTLHSGVPDRFSGSGSGTDFTLKISRVEAEDVGVYYCQQSKEDPRTFGQGTKLEIKR
With B2 the EC50 (read off the curve) was 0.7 µg/mL.

Reference: patent US20240190968A1
